Measured values taken from patent US20230303685A1 (ELECTRA THERAPEUTICS, published 2023).
Positions count from the first letter of the chain named. Blank lines part the entries; values can stand above or below the binder they belong to.

Legend:
Human SIRPγ [1] = biological target: T1, Human SIRPγ; assay: ELISA, extracellular domain coated at 1 µg/mL, purified antibody titrated, anti-human IgG, chemiluminescence
T1 construct: also called human SIRPγ extracellular domain, plate-coated
T1 chain: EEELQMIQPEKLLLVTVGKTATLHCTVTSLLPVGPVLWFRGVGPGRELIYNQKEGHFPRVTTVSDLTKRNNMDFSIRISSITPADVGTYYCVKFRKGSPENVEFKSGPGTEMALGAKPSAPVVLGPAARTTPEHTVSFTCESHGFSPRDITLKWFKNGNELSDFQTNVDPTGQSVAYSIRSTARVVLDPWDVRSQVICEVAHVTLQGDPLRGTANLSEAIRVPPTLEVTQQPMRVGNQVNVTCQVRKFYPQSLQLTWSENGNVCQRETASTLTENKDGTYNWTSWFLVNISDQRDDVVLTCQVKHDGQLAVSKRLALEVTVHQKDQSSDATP
Procedure: (§1) Select SIRP antibodies were purified by Protein G from hybridoma supernatants and analyzed in a titration via ELISA. Briefly, 1 μg/mL of extracellular domain SIRPα was coated onto high protein-binding plates and blocked. Purified antibodies were added in a titration to the coated plates. The antibodies were detected by an anti-rat IgG antibody and a chemiluminescent substrate.
FIGS. 3A-3C show binding curves of SIRP antibodies and two isotype controls with human Fc to human SIRPα V1, human SIRPβ1, human SIRPγ and cynomolgus monkey SIRPα by ELISA. […] Isotype control 1 was an unrelated human IgG1 antibody with irrelevant CDRs. Isotype control 2 was the same as isotype control 1 but contained the same amino acid substitutions in the Fc region as some of the selected SIRP antibodies for increased FcγR binding (referring to Table 11). DNA was transiently transfected into CHO cells for 7 days. Antibodies were purified by Protein A from cell supernatants and analyzed in a titration via ELISA as previously described in FIGS. 2A-2B using an anti-human IgG antibody as the detection antibody.

[2] = biological target: T2, human SIRPα V1 extracellular domain, monomeric (human, UniProt P78324 31-373); assay: SPR (Biacore); antibody captured by anti-IgG on chip, monomeric SIRPα extracellular domain as analyte, 1:1 model
T2 construct: also called hSIRPα V1
Procedure: (§2) Selected antibodies were tested for their affinities to two hSIRPα variants (V1 and V2), and to cynomolgus monkey (herein referred to as “cyno”) SIRPα. The affinities of these SIRP antibodies were determined using surface plasmon resonance. The SIRP antibodies were flowed onto a chip and captured by an anti-mouse IgG or an anti-human IgG covalently coupled to the surface of the chip. A three-point titration of the extracellular binding domain of hSIRPα was performed per the manufacturer's recommended protocols.

[3] = biological target: T3, cynomolgus monkey SIRPα extracellular domain, monomeric (cynomolgus monkey, UniProt A0A2K5VYQ9 31-372); assay: as above
T3 construct: extracellular domain; also called Cyno SIRPα
Procedure: as §2

[4] = biological target: T4, human SIRPα V2 extracellular domain, monomeric (human, UniProt P78324 31-370); assay: as above
T4 construct: also called hSIRPα V2
Procedure: as §2

Human SIRPγ [5] = biological target: T1, Human SIRPγ; assay: ELISA, extracellular domain coated at 2 µg/mL, purified antibody titrated, anti-rat or anti-mouse IgG, chemiluminescence
Procedure: as §1, with “2” for “1”, “of each of the SIRPs” for “SIRPα”, “IgG or an anti-mouse IgG” for “IgG”

[6] = biological target: T5, human SIRPα V1-His monomer (human, UniProt P78324 31-373, limits assumed); assay: BLI (Octet); antibody on anti-mouse IgG capture tip, SIRP-His monomer at 100, 33.3, 11.1 nM, 1:1 fit, mean KD
T5 construct: 'SIRP-His monomer protein' of the Octet assay; also called SIRP-His; not shown: His tag
Procedure: (§3) Select SIRP antibodies were tested for their affinities to human SIRPα, SIRPβ1, and SIRPγ using a biolayer interferometry (BLI) Octet system (Pall ForteBio). Each SIRP antibody with rat or mouse Fc was immobilized on a biosensor tip by an anti-mouse IgG capture (AMC). Antibodies with human Fc were digested with gingipain K enzyme to yield monomeric F(ab′), biotinylated, then coated onto streptavidin biosensors. […] The biosensors were then exposed to wash buffer to measure off-rate kinetics. The resulting kinetic data were analyzed and fitted using a 1:1 binding model with kₒₙ and kdis fitted separately at each SIRP-His protein concentration. KD affinities were calculated as kdis to kₒₙ ratio at each concentration of SIRP-His and averaged.

Human SIRPγ CHO = biological target: T6, Human SIRPγ CHO; assay: flow cytometry, stably transfected CHO cells, antibody titrated, labelled anti-rat or anti-mouse IgG, MFI
T6 construct: also called human SIRPγ on CHO cells
T6 chain: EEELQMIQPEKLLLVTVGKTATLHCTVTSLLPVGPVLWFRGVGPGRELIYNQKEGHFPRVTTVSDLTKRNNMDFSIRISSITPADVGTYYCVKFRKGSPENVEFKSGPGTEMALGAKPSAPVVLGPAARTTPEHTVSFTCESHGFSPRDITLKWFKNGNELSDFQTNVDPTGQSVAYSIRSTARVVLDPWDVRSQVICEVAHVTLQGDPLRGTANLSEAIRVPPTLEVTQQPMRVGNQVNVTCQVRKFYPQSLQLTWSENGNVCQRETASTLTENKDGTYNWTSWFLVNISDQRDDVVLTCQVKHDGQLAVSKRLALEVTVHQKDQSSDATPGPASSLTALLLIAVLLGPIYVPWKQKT
Procedure: (§4) Selected antibodies were tested for binding to stably transfected human SIRPα, SIRPβ1 (co-transfected with DAP12), or SIRPγ Chinese hamster ovary (CHO) cells via flow cytometry. A titration of SIRP antibodies was added to the cells and detected using a fluorescently labelled secondary antibody. Graph depicts the median fluorescence intensity (MFI) at each concentration.

human SIRPγ-His monomer = biological target: T7, human SIRPγ-His monomer (human); assay: BLI (Octet); antibody on anti-mouse IgG capture tip, SIRP-His monomer at 100, 33.3, 11.1 nM, 1:1 fit, mean KD
T7 construct: 'SIRP-His monomer protein' of the Octet assay; also called SIRP-His; not shown: His tag
Procedure: as §3

[7] = biological target: T8, Human SIRPγ conjugated to an Fc region (human); assay: BLI blocking; 200 nM antibody pre-incubated with 20 nM SIRPγ-Fc, binding to immobilised CD47-His (competitor), % of response of SIRPγ-Fc alone
T8 construct: also called SIRPγ-Fc; SIRP-Fc; not shown: Fc region

[8] = biological target: T2, human SIRPα V1 extracellular domain, …; assay: ELISA, extracellular domain coated at 2 µg/mL, purified antibody titrated, anti-rat or anti-mouse IgG, chemiluminescence
Procedure: as §1, with “2” for “1”, “of each of the SIRPs” for “SIRPα”, “IgG or an anti-mouse IgG” for “IgG”

Human SIRPβ1 = biological target: T9, Human SIRPβ1; assay: as above
T9 construct: also called human SIRPβ1 extracellular domain, plate-coated
T9 chain: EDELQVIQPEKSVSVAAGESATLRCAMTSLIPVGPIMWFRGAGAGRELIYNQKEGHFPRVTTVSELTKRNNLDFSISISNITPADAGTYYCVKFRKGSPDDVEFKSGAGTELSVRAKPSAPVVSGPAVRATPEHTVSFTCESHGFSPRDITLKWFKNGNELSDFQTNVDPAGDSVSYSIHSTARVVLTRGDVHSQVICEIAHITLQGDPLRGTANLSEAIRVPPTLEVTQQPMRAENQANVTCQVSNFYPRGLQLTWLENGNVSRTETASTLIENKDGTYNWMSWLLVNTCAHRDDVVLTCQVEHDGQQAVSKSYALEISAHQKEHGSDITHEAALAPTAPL
Procedure: as §1, with “2” for “1”, “of each of the SIRPs” for “SIRPα”, “IgG or an anti-mouse IgG” for “IgG”

Cynomolgus Monkey SIRPγ = biological target: T10, Cynomolgus Monkey SIRPγ (Macaca fascicularis); assay: as above
T10 construct: extracellular domain; also called cyno SIRPγ extracellular domain, plate-coated
Procedure: as §1, with “2” for “1”, “of each of the SIRPs” for “SIRPα”, “IgG or an anti-mouse IgG” for “IgG”

human SIRPβ1-His monomer = biological target: T11, human SIRPβ1-His monomer (human, UniProt O00241 30-371); assay: BLI (Octet); antibody on anti-mouse IgG capture tip, SIRP-His monomer at 100, 33.3, 11.1 nM, 1:1 fit, mean KD
T11 construct: 'SIRP-His monomer protein' of the Octet assay; also called SIRP-His; not shown: His tag
Procedure: as §3

Human SIRPβ1/DAP12 CHO = biological target: T12, Human SIRPβ1/DAP12 CHO; assay: flow cytometry, stably transfected CHO cells, antibody titrated, labelled anti-rat or anti-mouse IgG, MFI
T12 construct: also called human SIRPβ1 on CHO cells co-transfected with DAP12; copies: 1 + 2
Procedure: as §4

T12 sequence (DAP12, as listed by the source limits assumed): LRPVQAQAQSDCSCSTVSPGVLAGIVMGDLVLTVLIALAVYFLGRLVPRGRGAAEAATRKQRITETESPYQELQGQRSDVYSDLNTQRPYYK

B2: Antibody 9 (antibody, V domains shown)
VH: QVQLQQWGAGLLKPSETLSLTCAVYGGSFSTYYWNWIRQPPGKGLEWIGEINHSGSTNYNPSLKSRVIISVDTSKNQFSLKLSSVTAADTAVYYCASSHYGSGSFPDSYGMDVWGQGTTVTVSA
VL: SYELTQSPSVSVSPGQTASITCSGDKLGDRYAWWYQQKPGQSPVLVIYQDDKRPSGIPERFSGSNSGNTATLTISGTQAMDEADYYCQAWDSSTAVFGGGTKLTVL
notes: Human variable region, rat IgG2b Fc; from hybridoma
binding result (Human SIRPγ [5]): binds
Kd [6]: 1.24 nM
binding result (Human SIRPγ CHO): binds

B3: Antibody 10 (antibody, V domains shown)
VH: EVQLLESGGGLVQPGGSLRLSCAASGFTFSSYAMSWVRQAPGKGLEWVSAISGSGGDTYYADSVKGRFTISRDNSKSTLYLQMNSLRAEDTAVYYCAKDGGSYYPPFDYWGQGTLVTVSS
VL: B2 VL with S7P, W33C, D51T, W90C
notes: as for B2
binding result (Human SIRPγ [5]): binds
Kd (human SIRPγ-His monomer): 1.37 nM
Kd [6]: 57.6 nM
SIRPγ-CD47 Response (%) [7]: -4.29%
binding result (Human SIRPγ CHO): binds

B6: Antibody 8 (antibody, V domains shown)
VH: QVQLQQWGAGLLKPSETLSLTCAVYGGSFSGYYWSWIRQPPGKGLEWIGEINHSGSTNFNPSLKSRVTISVDTSKNQFSLKLRSVTAADTAVYYCSRVDSGSYPYYDGLDVWGQGTTVTVSS
VL: SSELTQPPSVSVSPGQTASITCSGDKLGDKYVYWYQQKPGQSPVLVIYHDDRRPAGIPERFAGSASGNTATLTISGTQAMDEADYYCQTWDSSTVVFGGGTKLTVL
notes: as for B2
EC50 (read off the curve) (Human SIRPγ [5]): ~0.02 µg/mL
EC50 (read off the curve) [8]: ~0.03 µg/mL
EC50 (read off the curve) (Human SIRPβ1): ~0.02 µg/mL
EC50 (read off the curve) (Cynomolgus Monkey SIRPγ): ~0.03 µg/mL
Kd (human SIRPγ-His monomer): 50 nM
Kd (human SIRPβ1-His monomer): 78.9 nM
Kd [6]: 46.6 nM
SIRPγ-CD47 Response (%) [7]: -4.94%
binding result (Human SIRPβ1/DAP12 CHO): binds
binding result (Human SIRPγ CHO): binds

B7: Antibody 14 (antibody, V domains shown)
VH: QVQLVESGGGVVQPGRSLRLSCVASGFIFSNYGMHWVRQAPGKGLEWVAVISYDGRNEDHVDSVKGRFTISRDNSKNTLYLQMNSLRAEDTAVYYCAKGSGSYYFDYWGQGTLVTVSS
VL: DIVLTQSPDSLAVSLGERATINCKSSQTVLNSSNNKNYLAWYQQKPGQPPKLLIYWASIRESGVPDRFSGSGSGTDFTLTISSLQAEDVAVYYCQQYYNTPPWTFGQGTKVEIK
notes: as for B2
EC50 (read off the curve) (Human SIRPγ [5]): ~0.05 µg/mL
EC50 (read off the curve) (Cynomolgus Monkey SIRPγ): ~0.09 µg/mL
Kd (human SIRPγ-His monomer): 38.7 nM
SIRPγ-CD47 Response (%) [7]: 14.4%
binding result (Human SIRPγ CHO): binds

Results, then the binder that gave them:

EC50 (read off the curve) (Human SIRPγ [1]): ~0.04 µg/mL
Kd [2]: 323 nM
Kd [3]: 384 nM
Kd [4]: 374 nM
B1: Antibody 23 (antibody, V domains shown)
VH: QVQLQESGPGLVKPSGTLSLTCAVSGGSISSSNWWSWVRQPPGKGLEWIGEIYHSGSTNYNPSLKSRVTISVDKSKNQFSLKLSSVTAADTAVYYCARRGIWFGVGPWGQGTLVTVSS
VL: DIVMTQSPLSLPVTPGEPASISCRSSQSLLHGNGFNYLDWYLQKPGQSPQLLIYLGSNRASGVPDRFTGSGSGTDFTLKISRVEAEDVGVYYCMQGLQTPRTFGQGTKVEIK
notes: Variable regions of Antibody 1

EC50 (read off the curve) (Human SIRPγ [5]): ~0.06 µg/mL
EC50 (read off the curve) [8]: ~0.1 µg/mL
EC50 (read off the curve) (Human SIRPβ1): ~0.06 µg/mL
EC50 (read off the curve) (Cynomolgus Monkey SIRPγ): ~0.1 µg/mL
Kd (human SIRPγ-His monomer): 103 nM
Kd (human SIRPβ1-His monomer): 7500 nM
Kd [6]: 3.1 nM
SIRPγ-CD47 Response (%) [7]: -7.23%
EC50 (read off the curve) (Human SIRPγ CHO): ~0.2 µg/mL
Kd [2]: 4.57 nM
Kd [3]: 513 nM
B4: Antibody 3 (antibody, V domains shown)
VH: QVQLQESGPGLVKPSGTLSLTCAVSGGSISSSNWWSWVRQPPGKGLEWIGEIYHSGNTNYNPSLKSRVTISVDKSKNQFSLKLSSVTAADTAVYYCAREGIEGYYFYYGMDVWGQGTTVTVSS
VL: DIQLTQSPSFLSASVGDRVTITCRASQGISGYLDWYQQKPGKAPKLLIYAASTLQRGVPSRFSGSGSGTDFNLTISSLQPEDFATYYCQQFTSDLITFGQGTRLEIK
notes: as for B2

EC50 (read off the curve) (Human SIRPγ [1]): ~0.02 µg/mL
SIRPγ-CD47 Response (%) [7]: -37.9%
Kd [2]: 2.89 nM
Kd [3]: 15 nM
Kd [4]: 22.6 nM
B5: Antibody 24 (antibody, V domains shown)
VH: B4 VH
VL: B4 VL
notes: Variable regions of Antibody 3
